This note sets out measurements from patent US11572561B2, “Method and composition for inhibiting growth of bacterium” (priority 2020, dated 2023).

“Also recorded” adds a separate entry of the source.

Series [1] concerns resistance strains of P. aeruginosa (R3). The experiment in a line: MIC measurement (microbroth dilution) of resistance strain overexpressing sRNA. As to conditions: transformed R3 strain. The format is cell-based. From the text:
Different classes of antibiotics including aminoglycoside, cephalosporin, beta-lactam, extended-spectrum penicillin beta-lactam, fluoroquinolone were used. Antibiotics susceptibility and resistance strains are highlighted. R3-AS1974, R3-AS2779 and R3-IGR2780 represent R3 strains transformed with the corresponding sRNA while R3-AS1974-Reverse represents R3 strains transformed the sRNA which sequence was reverse and complementary to AS1974 (negative control). R3-empty vector was used as vector control. The strain ATCC27853 was used for quality control.
To find out if the sRNAs directly play a role in the intrinsic drug resistance of bacteria, each of the sRNAs was overexpressed in the resistance strains of P. aeruginosa, and MIC measurements were performed. […]
The MICs of 11 antibiotics, including penicillin G, cefotaxime, chloramphenicol, tetracycline, erythromycin, lincomycin, ciprofloxacin (Sigma, St. Louis, Mo., USA), levofloxacin (Daiichi Sankyo, Tokyo, Japan), gatifloxacin (Bristol-Myers Squibb, Moreton, UK), moxifloxacin (Bayer Healthcare Pharmaceuticals, Berlin, Germany), and linezolid (Pfizer, NJ, USA), were determined using the microbroth dilution method, according to the Clinical and Laboratory Standards Institute (CLSI). […]

Series [2] concerns total transcripts of P. aeruginosa. The experiment in a line: Transcriptome profile comparison of AS1974-transformed and control strains (off-target effect). The conditions noted are these: AS1974-transformed vs control strains. In kind it is cell-based.
In series [3] the test system is AS1974 target genes (mexD, chtA, prc, major facilitator superfamily, pilD, ndvB). The experiment in a line: Real-time qPCR of AS1974 target genes in AS1974-overexpressing resistance strain. The format is cell-based, P. aeruginosa. The conditions noted are these: R3-AS1974 vs R3-EV (empty vector). As for the experimental part: One of the major functions of sRNAs is to suppress the target gene expression under particular conditions or in response to external stimuli. To find out the regulatory roles of AS1974 sRNAs in various drug resistance pathways, the inventors sequenced the transcriptomes of six strains, and they used newly developed program to correlate sRNA repertoires with transcriptomes. […] To validate the transcriptome result, real-time qPCR experiments were performed to measure and compare the transcript levels of these genes in both drug-susceptible and drug-resistant strains.
To further investigate if these drug-resistant genes were directly controlled by this sRNA, AS1974 was overexpressed in the resistance strain and their transcript levels were measured by qPCR. Empty vector was used as a negative control. […]
Six P. aeruginosa strains, S1, S2, S3, R1, R2, and R3, were grown at 37° C. overnight in nutrient broth with shaking at 250 rpm and harvested at stationary phase (OD600=1.5-1.7). […] Melting curves were determined by an auto-dissociation program. […] The results were expressed as the means of at least 3 independent experiments. Data are presented as mean±SD, and comparisons were analyzed using unpaired t test (two tailed: *p<0.05, **p<0.01, and ***p<0.001).
On the technique in general: In qPCR the cycle at which signal appears reflects the starting amount.

B1: AS1974: sRNA of P. aeruginosa, SEQ ID NO: 2, located at the antisense region of mexR (nucleic acid, listed as Pseudomonas aeruginosa)
chain: GAATGTTCTTAAATATCCTCAAGCGGTTGCGCGGCCAGGCACTGGTCGAGGAGATGCACCAGGGTGGCCTGTTCCACCGGGGTGAGCGGGGCAAACAACTCGTCATGCACGCGTGACATGATGGCCTC
Take B1: the “resistance of the AS1974-overexpressed strain to chloramphenicol” value in series [1] (chloramphenicol) is listed as “still showed resistance”. Moreover, the “effect of sRNA overexpression on MIC / antibiotic susceptibility of the resistance strain” value in series [1] (aminoglycoside, cephalosporin, meropenem, ertapenem, empty vector control) is on record as “hypersusceptibility; also recorded: transformed the bacteria from resistant strains to drug-sensitive strains”. In addition, the “total transcripts affected (off-target effect)” value in series [2] was “less than 1%”. Also, in series [3], the “target gene expression upon overexpression of sRNA” value is given as “downregulated”.
